Target: T1, SidJ^[change] (SidJ 59–851) (L. pneumophila, UniProt Q5ZTK6 59-851)
T1 sequence: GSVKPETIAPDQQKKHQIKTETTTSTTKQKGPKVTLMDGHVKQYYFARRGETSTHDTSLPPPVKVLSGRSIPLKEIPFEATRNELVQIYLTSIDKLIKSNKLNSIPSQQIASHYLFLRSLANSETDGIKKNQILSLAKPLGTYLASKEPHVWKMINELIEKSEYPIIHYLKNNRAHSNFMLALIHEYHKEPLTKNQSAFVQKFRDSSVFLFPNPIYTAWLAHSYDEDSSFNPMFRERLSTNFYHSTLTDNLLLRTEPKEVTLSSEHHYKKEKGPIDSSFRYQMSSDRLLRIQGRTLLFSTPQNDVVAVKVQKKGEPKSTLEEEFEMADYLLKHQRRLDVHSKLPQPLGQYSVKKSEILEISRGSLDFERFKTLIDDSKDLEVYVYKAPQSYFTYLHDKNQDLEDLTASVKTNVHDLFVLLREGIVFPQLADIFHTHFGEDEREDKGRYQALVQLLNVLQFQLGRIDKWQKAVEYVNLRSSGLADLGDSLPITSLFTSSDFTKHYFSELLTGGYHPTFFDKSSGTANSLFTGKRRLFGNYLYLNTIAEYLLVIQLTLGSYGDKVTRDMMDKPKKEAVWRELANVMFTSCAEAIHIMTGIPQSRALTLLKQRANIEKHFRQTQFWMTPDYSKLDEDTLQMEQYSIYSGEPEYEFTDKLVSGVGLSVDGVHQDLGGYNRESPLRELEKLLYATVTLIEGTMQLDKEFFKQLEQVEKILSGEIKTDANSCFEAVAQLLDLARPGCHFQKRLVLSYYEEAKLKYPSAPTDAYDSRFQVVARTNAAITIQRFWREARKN
Test: crystal structure

B1: yeast CaM (yCaM) (natural protein)
chain: not shown
Q: Does B1 bind?
A: Result: binds

— article PMC6767918 (Science (New York, N.Y.), 2019)
